From article doi:10.1101/2021.07.20.453058 (bioRxiv, 2021)

Tests used:
Test in all cases: native gel or EMSA
[1] = molecular target: KaiB3 (recombinant, GST-tag removed) (Synechocystis sp. PCC 6803)
[2] = molecular target: KaiA3-His6 (Synechocystis sp. PCC 6803)
[3] = molecular target: Strep-KaiC3 (Synechocystis sp. PCC 6803)
native gel or EMSA = molecular target: the molecule itself

## KaiB3 (recombinant, GST-tag removed) (natural protein)
[1]
  stoichiometry N: 4

## KaiA3-His6 (natural protein)
[2]
  stoichiometry N: > 2

## Strep-KaiC3 (natural protein)
[3]
  stoichiometry N: 6

B1: Synechococcus KaiA (recombinant, GST-tag removed) (natural protein, Synechococcus elongatus PCC 7942, UniProt Q79PF6 1-284, looked up)
chain: MLSQIAICIWVESTAILQDCQRALSADRYQLQVCESGEMLLEYAQTHRDQIDCLILVAANPSFRAVVQQLCFEGVVVPAIVVGDRDSEDPDEPAKEQLYHSAELHLGIHQLEQLPYQVDAALAEFLRLAPVETMADHIMLMGANHDPELSSQQRDLAQRLQERLGYLGVYYKRDPDRFLRNLPAYESQKLHQAMQTSYREIVLSYFSPNSNLNQSIDNFVNMAFFADVPVTKVVEIHMELMDEFAKKLRVEGRSEDILLDYRLTLIDVIAHLCEMYRRSIPRET
Native gel or EMSA
  stoichiometry N: 2
